Series [1] has as its target YB-1 CSD (Homo sapiens, UniProt P67809 52-129). Kind of series: NMR HSQC; 1:1; EMSA: 20 mM Hepes pH 7.5, 40 mM KCl, room temp, 5 min (SSB: 20 mM Tris-HCl pH 7.6, 300 mM KCl, 37 C, 15 min); NMR: 100 uM protein, 1:1 oligo, 298 K (RNA 298 and 303 K), NMR buffer not in material. Conditions: protein: recombinant.
Series [2] addresses YB-1C (Homo sapiens, UniProt P67809 1-180). The series is described as follows: NMR HSQC; 1:1; monomer; EMSA: 20 mM Hepes pH 7.5, 40 mM KCl, room temp, 5 min (SSB: 20 mM Tris-HCl pH 7.6, 300 mM KCl, 37 C, 15 min); NMR: 100 uM protein, 1:1 oligo, 298 K (RNA 298 and 303 K), NMR buffer not in material. Conditions: protein: recombinant; tags: His-tag (pET22b); untagged version also used.

YB-1C, sequence (P67809 1-180): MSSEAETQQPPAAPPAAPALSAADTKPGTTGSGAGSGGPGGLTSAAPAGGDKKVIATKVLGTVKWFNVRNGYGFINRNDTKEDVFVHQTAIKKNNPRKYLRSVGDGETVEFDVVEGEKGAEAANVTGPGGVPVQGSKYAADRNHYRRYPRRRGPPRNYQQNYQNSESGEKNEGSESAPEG
YB-1 CSD, sequence (P67809 52-129): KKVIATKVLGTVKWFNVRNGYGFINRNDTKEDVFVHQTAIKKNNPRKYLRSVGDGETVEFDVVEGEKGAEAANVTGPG

As to CCCCCCCCCC (ssDNA) [dC10], the binding result in series [1] and in series [2] was “binds” in each case.

Values taken from article PMC6451097, “YB-1, an abundant core mRNA-binding protein, has the capacity to form an RNA nucleoprotein filament: a structural analysis”.
